Source: PMC10965115
Like-named read-outs stand apart in the source and are kept apart here.

What was measured:
Test in all cases: BLI
[1] = molecular target: IgG1 LALA RUBY #10 (human)
[2] = molecular target: IgG1 LALA RUBY v9 #2 (human)
IgG1 RUBY v9 #15 (human) [3] = molecular target: IgG1 RUBY v9 #15 (human)
IgG1 mAb (human) [4] = molecular target: IgG1 mAb (human)
IgG2 RUBY v9 #16 (human) [5] = molecular target: IgG2 RUBY v9 #16 (human)
IgG2 mAb (human) [6] = molecular target: IgG2 mAb (human)
IgG1 LALA mAb (human) = molecular target: IgG1 LALA mAb (human)
IgG1 RUBY v9 #15 (human) [7] = molecular target: IgG1 RUBY v9 #15 (human); remark: listed apart in the source
IgG1 mAb (human) [8] = molecular target: IgG1 mAb (human); remark: listed apart in the source
IgG2 RUBY v9 #16 (human) [9] = molecular target: IgG2 RUBY v9 #16 (human); remark: listed apart in the source
IgG2 mAb (human) [10] = molecular target: IgG2 mAb (human); remark: listed apart in the source

Molecule: recombinant mouse FcRn (from UniProt Q61559) (receptor)
- Kd [1]: 70 nM
- koff [1]: 0.007 s⁻¹
- kon [1]: 100000 M⁻¹ s⁻¹

Molecule: hFcγRI (from UniProt P12314) (receptor)
- Kd [2]: 40 nM

Molecule: hFcγRIIIa 176 V (from UniProt P08637) (receptor)
- Kd (IgG1 RUBY v9 #15 (human) [3]): 30 nM
- koff (IgG1 RUBY v9 #15 (human) [3]): 0.03 s⁻¹
- kon (IgG1 RUBY v9 #15 (human) [3]): 1e+06 M⁻¹ s⁻¹
- Kd (IgG1 mAb (human) [4]): 50 nM
- koff (IgG1 mAb (human) [4]): 0.03 s⁻¹
- kon (IgG1 mAb (human) [4]): 600000 M⁻¹ s⁻¹

Molecule: recombinant human FcRn (from UniProt P55899) (receptor)
- Kd (IgG2 RUBY v9 #16 (human) [5]): 1000 nM
- koff (IgG2 RUBY v9 #16 (human) [5]): 0.2 s⁻¹
- kon (IgG2 RUBY v9 #16 (human) [5]): 200000 M⁻¹ s⁻¹
- Kd (IgG2 mAb (human) [6]): 600 nM
- koff (IgG2 mAb (human) [6]): 0.1 s⁻¹
- kon (IgG2 mAb (human) [6]): 200000 M⁻¹ s⁻¹
- Kd (IgG1 RUBY v9 #15 (human) [3]): 600 nM
- koff (IgG1 RUBY v9 #15 (human) [3]): 0.08 s⁻¹
- kon (IgG1 RUBY v9 #15 (human) [3]): 100000 M⁻¹ s⁻¹
- Kd (IgG1 LALA mAb (human)): 500 nM
- koff (IgG1 LALA mAb (human)): 0.1 s⁻¹
- kon (IgG1 LALA mAb (human)): 200000 M⁻¹ s⁻¹
- Kd [1]: 600 nM
- koff [1]: 0.08 s⁻¹
- kon [1]: 100000 M⁻¹ s⁻¹
- Kd (IgG1 mAb (human) [4]): 500 nM
- koff (IgG1 mAb (human) [4]): 0.05 s⁻¹
- kon (IgG1 mAb (human) [4]): 100000 M⁻¹ s⁻¹

Molecule: hFcγRIIa (from UniProt P12318) (receptor)
- Kd (IgG1 mAb (human) [4]): 300 nM

Molecule: mFcγRIV (from UniProt A0A0B4J1G0) (receptor)
- Kd (IgG1 RUBY v9 #15 (human) [3]): 40 nM
- Kd (IgG1 mAb (human) [4]): 50 nM
- kon (IgG1 mAb (human) [4]): 400000 M⁻¹ s⁻¹

B1: mFcγRI (receptor)
chain: EVVNATKAVITLQPPWVSIFQKENVTLWCEGPHLPGDSSTQWFINGTAVQISTPSYSIPEASFQDSGEYRCQIGSSMPSDPVQLQIHNDWLLLQASRRVLTEGEPLALRCHGWKNKLVYNVVFYRNGKSFQFSSDSEVAILKTNLSHSGIYHCSGTGRHRYTSAGVSITVKELFTTPVLRASVSSPFPEGSLVTLNCETNLLLQRPGLQLHFSFYVGSKILEYRNTSSEYHIARAEREDAGFYWCEVATEDSSVLKRSPELELQVLGPQSSAP
- Kd (IgG1 RUBY v9 #15 (human) [7]): 40 nM
- koff (IgG1 RUBY v9 #15 (human) [7]): 0.03 s⁻¹
- kon (IgG1 RUBY v9 #15 (human) [7]): 700000 M⁻¹ s⁻¹
- Kd (IgG1 mAb (human) [8]): 40 nM
- koff (IgG1 mAb (human) [8]): 0.02 s⁻¹
- kon (IgG1 mAb (human) [8]): 600000 M⁻¹ s⁻¹

B2: mFcγRIII (receptor)
chain: ALPKAVVKLDPPWIQVLKEDMVTLMCEGTHNPGNSSTQWFHNGRSIRSQVQASYTFKATVNDSGEYRCQMEQTRLSDPVDLGVISDWLLLQTPQRVFLEGETITLRCHSWRNKLLNRISFFHNEKSVRYHHYKSNFSIPKANHSHSGDYYCKGSLGSTQHQSKPVTITVQDPATTSSISLVWYHT
- Kd (IgG2 RUBY v9 #16 (human) [9]): 10 nM
- koff (IgG2 RUBY v9 #16 (human) [9]): 0.006 s⁻¹
- kon (IgG2 RUBY v9 #16 (human) [9]): 600000 M⁻¹ s⁻¹
- Kd (IgG2 mAb (human) [10]): 10 nM
- koff (IgG2 mAb (human) [10]): 0.008 s⁻¹
- kon (IgG2 mAb (human) [10]): 700000 M⁻¹ s⁻¹
- Kd (IgG1 RUBY v9 #15 (human) [7]): 10 nM
- koff (IgG1 RUBY v9 #15 (human) [7]): 0.01 s⁻¹
- kon (IgG1 RUBY v9 #15 (human) [7]): 700000 M⁻¹ s⁻¹
- Kd (IgG1 mAb (human) [8]): 20 nM
- koff (IgG1 mAb (human) [8]): 0.006 s⁻¹
- kon (IgG1 mAb (human) [8]): 400000 M⁻¹ s⁻¹
